Source: patent publication US20200323888A1, “INHIBITORS” (VESTLANDETS INNOVASJONSSELSKAP AS, priority 2017, published 2020)
Primed or numbered codes have the meaning given here. Ac′ = acetamide linker; CoA = coenzyme A

target: T1, Naa80 (Homo sapiens, UniProt Q93015); assay: Naa80 substrate screening assay (peptide acetylation by purified Naa80); format: biochemical; conditions: Naa80 mediated acetylation of 24-mer peptide substrates
T1 construct: The PCR product containing the CDS was inserted into the TOPO TA vector; made in house; host or cells: E. coli BL21 Star (DE3)
T1 sequence (Q93015 1-308 isoform Q93015-2): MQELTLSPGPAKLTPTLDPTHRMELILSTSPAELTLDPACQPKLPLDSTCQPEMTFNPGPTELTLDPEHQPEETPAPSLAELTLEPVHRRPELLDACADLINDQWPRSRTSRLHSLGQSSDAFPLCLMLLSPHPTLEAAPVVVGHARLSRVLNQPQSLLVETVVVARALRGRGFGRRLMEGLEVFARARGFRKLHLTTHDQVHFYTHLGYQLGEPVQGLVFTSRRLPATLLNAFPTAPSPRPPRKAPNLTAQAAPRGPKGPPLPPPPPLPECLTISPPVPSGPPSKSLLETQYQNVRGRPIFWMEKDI
Text: In order to investigate the in vitro activity of Naa80 further, an enzyme activity screening assay on purified Naa80 was undertaken using a broad substrate library (including amino acids, nucleosides, coenzymes, amines, saccharides, vitamins, antioxidants and peptides) modified from Kuhn et al. (Kuhn et al. (2013) “Broad-substrate screen as a tool to identify substrates for bacterial Gcn5-related N-acetyltransferases with unknown substrate specificity”. Protein Science 22(2):222-230). Among all of the potential substrates tested, only the peptides with N-terminal sequence of MDEL24 (SEQ ID NO: 45), DDDI24 (SEQ ID NO: 41) and EEEI24 (SEQ ID NO: 40) were acetylated, as shown in the following table:
The 24-mer substrate peptides differed in their 7 N-terminal amino acids while the 17 C-terminal residues (RWGRPVGRRRRPVRVYP, SEQ ID NO: 39) were kept constant: EEEI24 (EEEIAAL, SEQ ID NO: 40), DDDI24 (DDDIAAL, SEQ ID NO: 41), MDDD24 (MDDDIAA, SEQ ID NO: 42), SESS24 (SESSSKS, SEQ ID NO: 43), AVFA24 (AVFADLD, SEQ ID NO: 44), MDEL24 (MDELFPL, SEQ ID NO: 45), MELL24 (MELLSPP, SEQ ID NO: 46), MLGT24 (MLGTGPA, SEQ ID NO: 47), MTNK24 (MTNKSSL, SEQ ID NO: 48), MLGP24 (MLGPEGG, SEQ ID NO: 49), MAPL24 (MAPLDLD, SEQ ID NO: 50), MKKS24 (MKKSYSG, SEQ ID NO: 51).
Both MDEL (p65, SEQ ID NO: 8) and MDDD24 (unprocessed β-actin, SEQ ID NO: 42) represent cellular NatB substrates.

Product formation	Compound
2.06 (±1.49) μM	MLGP24: 24-mer substrate peptide: N-terminal MLGPEGG (SEQ ID NO: 49) plus constant RWGRPVGRRRRPVRVYP (MLGPEGGRWGRPVGRRRRPVRVYP)
42.4 (±0.95) μM	EEEI24: 24-mer substrate peptide: N-terminal EEEIAAL (SEQ ID NO: 40) plus constant RWGRPVGRRRRPVRVYP (EEEIAALRWGRPVGRRRRPVRVYP)
1.14 (±3.35) μM	SESS24: 24-mer substrate peptide: N-terminal SESSSKS (SEQ ID NO: 43) plus constant RWGRPVGRRRRPVRVYP (SESSSKSRWGRPVGRRRRPVRVYP)
2.28 (±0.61) μM	MAPL24: 24-mer substrate peptide: N-terminal MAPLDLD (SEQ ID NO: 50) plus constant RWGRPVGRRRRPVRVYP (MAPLDLDRWGRPVGRRRRPVRVYP)
3.37 (±1.71) μM	MKKS24: 24-mer substrate peptide: N-terminal MKKSYSG (SEQ ID NO: 51) plus constant RWGRPVGRRRRPVRVYP (MKKSYSGRWGRPVGRRRRPVRVYP)
−0.96 (±0.84) μM	AVFA24: 24-mer substrate peptide: N-terminal AVFADLD (SEQ ID NO: 44) plus constant RWGRPVGRRRRPVRVYP (AVFADLDRWGRPVGRRRRPVRVYP)
2.15 (±0.40) μM	MELL24: 24-mer substrate peptide: N-terminal MELLSPP (SEQ ID NO: 46) plus constant RWGRPVGRRRRPVRVYP (MELLSPPRWGRPVGRRRRPVRVYP)
−4.25 (±1.75) μM	MTNK24: 24-mer substrate peptide: N-terminal MTNKSSL (SEQ ID NO: 48) plus constant RWGRPVGRRRRPVRVYP (MTNKSSLRWGRPVGRRRRPVRVYP)

target: T1, Naa80; assay: Nt-acetylation inhibitor assay for Naa80; format: biochemical; conditions: Naa80
Experimental: FIG. 10: (A) IC50 values for inhibitors measured in an Nt-acetylation inhibitor assay for Naa80. (B) Ki-values for CoA-Ac-DDDI-NH2 (SEQ ID NO: 6) for different human NATs measured in an Nt-acetylation inhibitor assay. All reactions were performed at least three times and in triplicate; errors bars represent standard deviation of each measurement.
The IC50 values for these compounds were tested as described in Foyn H, et al. (2013) “Design, Synthesis, and Kinetic Characterization of Protein N-Terminal Acetyltransferase Inhibitors”. ACS Chem Biol 8:1121-1127; and Foyn H, et al. (2017) “DTNB-Based quantification of in vitro enzymatic N-terminal acetyltransferase activity”, Methods Mol. Biol. 1574:9-15. Briefly, a colorimetric acetylation assay, 5,5′-dithiobis-(2-nitrobenzoic acid) (DTNB) assay was used to measure the catalytic activity of NATs after incubation with NAT inhibitors. In the DTNB assay, thiols present in the enzymatic product, CoA, cleaves DTNB and produces 2-nitro-5-thiobenzoate (NTB-), which absorbs light with a wavelength of 412 nm. NTB- forms in a 1:1 molar ratio to the thiol groups present in the sample. Therefore, NTB- was quantified by measuring the absorbance at 412 nm and indirectly measures peptide Nt-acetylation. […] After 30 min-60 min incubation at 37° C., the enzyme activity was quenched with quenching buffer (3.2 M guanidinium-HCl, 100 mM sodium phosphate dibasic pH 6.8). Triplicates were run for all positive samples, while negative controls were duplicated. As a negative control, reactions without enzyme were incubated at 37° C. before the reaction was quenched and added enzyme. In order to measure CoA production, 2 mM DTNB (dissolved in 100 mM sodium phosphate dibasic pH 6.8 and 10 mM EDTA) was added to the quenched reaction and the absorbance at 412 nm was measured with a spectrophotometer (Epoc). Background absorbance (determined in negative controls) was subtracted from the absorbance determined in each individual reaction. Thiophenolate production was quantified assuming ε=13.7×103 M−1 cm−1. For NatA and NatB enzyme complex inhibition, immunoprecipitation was performed using Naa15 ab (custom made, Arnesen T, Anderson D, Baldersheim C, Lanotte M, Varhaug J E, Lillehaug J R. (2005) Identification and characterization of the human ARD1-NATH protein acetyltransferase complex. Biochemical J 386(Pt 3):433-43.) or Naa20 ab (Nat5, abnova) respectively and protein A/G magnetic agarose beads (Millipore). A similar Nt-acetylation reaction was performed as previously described and the enzymatic activity was quenched with a final concentration of 1% TFA and analyzed by HPLC (Evjenth R, Van Damme P, Gevaert K, Arnesen T (2013) HPLC-based Quantification of in vitro N-terminal Acetylation. Methods Mol Biol 981:95-102.).
We then pursued Naa80 bisubstrate analogue inhibitors based on the results of the substrate screening and the sequences of the cellular substrates processed β- and γ-actin. We synthesized bisubstrate conjugates of Coenzyme A coupled to the tetrapeptides MDEL-NH2 (SEQ ID NO: 8), DDDI-NH2 (SEQ ID NO: 6), EEEI-NH2 (SEQ
ID NO: 7), and MLGT-NH2 (SEQ ID NO: 52) via an acetamide (Ac) linker.
The following additional Naa80 bisubstrate analogue inhibitors were produced and tested as described above: […]

Compound	IC50
CC(C)C[C@H](NC(=O)[C@H](CCC(=O)O)NC(=O)[C@H](CCC(=O)O)NC(=O)[C@H](CCC(=O)O)NC(=O)CSCCNC(=O)CCNC(=O)C(O)C(C)(C)COP(=O)(O)OP(=O)(O)OCC1OC(n2cnc3c(N)ncnc32)C(O)C1OP(=O)(O)O)C(N)=O (stereo partly shown) [EEEL]	1160 nM

same assay, conditions: at the highest concentration tested of 1000 μM

inhibition of Naa80	Compound
did not show detectable inhibition	CoA-Ac-MLGT-NH2 ({CoA-Ac′}-MLGT-NH2)
